Holding throughout (test): ELISA, antibody coated, His-tagged PD-1 mutant supernatant; fold change vs silent alanine substitutions
In general terms: ELISA stands for enzyme-linked immunosorbent assay.

The target in assay [1] is T1, hPD-1 ECD-His point mutant D 85 (to alanine) (human, UniProt Q15116 25-170).
T1 construct: extracellular domain
As to the method: (§1) After interacting with the supernatant that contains quantified PD-1 mutant, HRP conjugated anti-His antibody (Rockland, Cat#200-303-382) was added as detection antibody. Absorbance was normalized according to the average of control mutants. After setting an additional cutoff to t4he binding fold change (<0.55), the final determined epitope residues were identified.

The target in assay [2] is T2, hPD-1 ECD-His point mutant Q 133 (to alanine) (human, UniProt Q15116 25-170).
T2 construct: extracellular domain
T2 sequence (Q15116 other isoform, or with tags, fused parts or gaps mutant): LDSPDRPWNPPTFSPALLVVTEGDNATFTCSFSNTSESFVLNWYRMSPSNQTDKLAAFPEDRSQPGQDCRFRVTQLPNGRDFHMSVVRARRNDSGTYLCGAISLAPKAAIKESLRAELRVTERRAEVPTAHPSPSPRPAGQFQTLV
As to the method: as §1

For assay [3], the target named is T3, hPD-1 ECD-His point mutant A 132 (to glycine) (human, UniProt Q15116 25-170).
T3 construct: extracellular domain
T3 sequence (Q15116 other isoform, or with tags, fused parts or gaps mutant): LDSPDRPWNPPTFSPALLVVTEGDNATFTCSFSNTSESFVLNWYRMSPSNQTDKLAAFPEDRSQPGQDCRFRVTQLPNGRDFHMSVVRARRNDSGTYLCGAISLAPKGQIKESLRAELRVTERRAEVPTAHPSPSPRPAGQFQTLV
As to the method: as §1

In assay [4] the target is T4, hPD-1 ECD-His point mutant I 126 (to alanine) (human, UniProt Q15116 25-170).
T4 construct: extracellular domain
T4 sequence (Q15116 other isoform, or with tags, fused parts or gaps mutant): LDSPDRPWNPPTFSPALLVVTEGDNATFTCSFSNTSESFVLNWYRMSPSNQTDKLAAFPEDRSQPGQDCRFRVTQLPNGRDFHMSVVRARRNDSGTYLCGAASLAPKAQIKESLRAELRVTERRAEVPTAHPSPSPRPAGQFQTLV
As to the method:
as §1

For assay [5], the target named is T5, hPD-1 ECD-His point mutant L 128 (to alanine) (human, UniProt Q15116 25-170).
T5 construct: extracellular domain
T5 sequence (Q15116 other isoform, or with tags, fused parts or gaps mutant): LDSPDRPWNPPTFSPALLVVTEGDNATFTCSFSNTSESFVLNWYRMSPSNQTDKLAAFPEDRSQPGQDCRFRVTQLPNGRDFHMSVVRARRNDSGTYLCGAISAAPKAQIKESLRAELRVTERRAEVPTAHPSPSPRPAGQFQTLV
As to the method: as §1

For assay [6], the target named is T6, hPD-1 ECD-His point mutant N 49 (to alanine) (human, UniProt Q15116 25-170).
T6 construct: extracellular domain
T6 sequence (Q15116 other isoform, or with tags, fused parts or gaps mutant): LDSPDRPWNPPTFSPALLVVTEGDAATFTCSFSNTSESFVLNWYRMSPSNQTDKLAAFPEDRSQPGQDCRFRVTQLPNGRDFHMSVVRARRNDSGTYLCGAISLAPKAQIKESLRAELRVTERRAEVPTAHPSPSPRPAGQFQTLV
As to the method:
as §1

For assay [7], the target named is T7, hPD-1 ECD-His point mutant P 130 (to alanine) (human, UniProt Q15116 25-170).
T7 construct: extracellular domain
T7 sequence (Q15116 other isoform, or with tags, fused parts or gaps mutant): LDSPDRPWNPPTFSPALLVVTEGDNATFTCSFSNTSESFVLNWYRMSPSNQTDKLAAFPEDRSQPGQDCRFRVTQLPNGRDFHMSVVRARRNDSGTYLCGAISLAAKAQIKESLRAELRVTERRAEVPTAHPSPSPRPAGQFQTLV
As to the method:
as §1

In assay [8] the target is T8, hPD-1 ECD-His point mutant F 52 (to alanine) (human, UniProt Q15116 25-170).
T8 construct: extracellular domain
T8 sequence (Q15116 other isoform, or with tags, fused parts or gaps mutant): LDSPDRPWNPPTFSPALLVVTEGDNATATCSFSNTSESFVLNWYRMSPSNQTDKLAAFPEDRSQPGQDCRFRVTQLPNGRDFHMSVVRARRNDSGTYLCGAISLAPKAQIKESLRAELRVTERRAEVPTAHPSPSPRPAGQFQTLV
As to the method:
as §1

The target of assay [9] is T9, hPD-1 ECD-His point mutant W 67 (to alanine) (human, UniProt Q15116 25-170).
T9 construct: extracellular domain
T9 sequence (Q15116 other isoform, or with tags, fused parts or gaps mutant): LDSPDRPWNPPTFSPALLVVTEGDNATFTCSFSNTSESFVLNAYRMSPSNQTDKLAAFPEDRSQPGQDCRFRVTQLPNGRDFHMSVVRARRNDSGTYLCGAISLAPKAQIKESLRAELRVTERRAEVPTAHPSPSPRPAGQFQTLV
As to the method: as §1

Assay [10] deals with T10, hPD-1 ECD-His point mutant F 82 (to alanine) (human, UniProt Q15116 25-170).
T10 construct: extracellular domain
T10 sequence (Q15116 other isoform, or with tags, fused parts or gaps mutant): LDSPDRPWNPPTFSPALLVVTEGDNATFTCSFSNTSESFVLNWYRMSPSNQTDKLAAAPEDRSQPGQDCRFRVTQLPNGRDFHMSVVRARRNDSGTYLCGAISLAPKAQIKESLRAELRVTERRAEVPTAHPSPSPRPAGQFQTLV
As to the method:
as §1

Assay [11] has as its target T11, hPD-1 ECD-His point mutant R 94 (to alanine) (human, UniProt Q15116 25-170).
T11 construct: extracellular domain
As to the method: as §1

Assay [12] deals with T12, hPD-1 ECD-His point mutant I 134 (to alanine) (human, UniProt Q15116 25-170).
T12 construct: extracellular domain
T12 sequence (Q15116 other isoform, or with tags, fused parts or gaps mutant): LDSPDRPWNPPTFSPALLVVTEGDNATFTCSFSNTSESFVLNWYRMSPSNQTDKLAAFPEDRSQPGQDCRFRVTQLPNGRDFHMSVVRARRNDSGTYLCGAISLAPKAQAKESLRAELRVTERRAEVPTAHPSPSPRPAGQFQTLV
As to the method: as §1

For assay [13], the target named is T13, hPD-1 ECD-His point mutant D 117 (to alanine) (human, UniProt Q15116 25-170).
T13 construct: extracellular domain
T13 sequence (Q15116 other isoform, or with tags, fused parts or gaps mutant): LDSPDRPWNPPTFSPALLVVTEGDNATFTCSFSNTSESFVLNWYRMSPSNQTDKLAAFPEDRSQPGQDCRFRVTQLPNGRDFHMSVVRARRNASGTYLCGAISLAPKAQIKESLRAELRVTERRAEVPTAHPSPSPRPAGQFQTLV
As to the method: as §1

Assay [14] addresses T14, hPD-1 ECD-His point mutant F 106 (to alanine) (human, UniProt Q15116 25-170).
T14 construct: extracellular domain
As to the method:
as §1

T14 sequence (Q15116 other isoform, or with tags, fused parts or gaps mutant): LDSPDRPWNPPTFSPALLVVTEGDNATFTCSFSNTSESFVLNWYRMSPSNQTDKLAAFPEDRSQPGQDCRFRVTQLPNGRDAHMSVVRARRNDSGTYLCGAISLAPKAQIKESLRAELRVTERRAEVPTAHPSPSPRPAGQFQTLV
T11 sequence (Q15116 other isoform, or with tags, fused parts or gaps mutant): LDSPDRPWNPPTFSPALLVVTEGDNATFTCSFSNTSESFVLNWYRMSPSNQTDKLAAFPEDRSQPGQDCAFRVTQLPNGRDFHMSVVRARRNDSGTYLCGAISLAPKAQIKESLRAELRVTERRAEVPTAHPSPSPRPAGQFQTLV
T1 sequence (Q15116 other isoform, or with tags, fused parts or gaps mutant): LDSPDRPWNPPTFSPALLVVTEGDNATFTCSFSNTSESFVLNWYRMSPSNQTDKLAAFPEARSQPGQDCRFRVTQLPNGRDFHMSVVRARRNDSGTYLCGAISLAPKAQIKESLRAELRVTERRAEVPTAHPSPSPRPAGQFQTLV

B1: 1.103.11 hAb (antibody, V domains shown)
VH: QLQLQESGPGLVKPSETLTLTCTVSADSISSTTYYWVWIRQPPGKGLEWIGSISYSGSTYYNPSLKSRVTVSVDTSKNQFSLKLNSVAATDTALYYCARHLGYNGRYLPFDYWGQGTLVTVSS
VL: QSALTQPASVSGSPGQSITISCTGTSSDVGFYNYVSWYQQHPGKAPELMIYDVSNRPSGVSDRFSGSKSGNTASLTISGLQAEDEADYYCSSYTNISTWVFGGGTKLTVL
notes: fully human monoclonal antibody with a human constant region of IgG4 isotype
Turning to B1, the fold change came out at 0.24 in assay [1]; 0.37 in [2]; 0.53 in [3]; 0.64 in assay [4]; 0.32 in assay [5]; 0.73 in assay [6]. The fold change in assay [7] came to 0.41; in [8], 0.59; in [9] it was 0.76; in assay [10] it was 0.65; in [11] it was 0.7; in assay [12], 0.69. For the same molecule, the values for the fold change in assay [13] and in [14] were 0.73 and 0.41, respectively.
